The text below walks through data of the supplement of paper PMC9112550, “Optimization of the antimicrobial peptide Bac7 by deep mutational scanning” (BMC Biology, 2022).

This series deals with Escherichia coli TOP10. Description: shrunken log2 fold change of peptide-encoding DNA abundance (4.5 h post-induction vs induction); higher = less antimicrobial activity (less host growth inhibition). To be noted: time post-induction: 4.5 h; library: site-saturation at positions 5, 18, 19, 20.
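Further: peptides expressed intracellularly from a pBAD plasmid library in pooled LB shake-flask culture, induced with 0.3% L-arabinose, DNA abundance read by NGS, three biological replicates, DESeq2 with apeglm shrinkage.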

As to RRIRNRPPRLPRPRPRPKGLPRP, the “shrunken log2 fold change” value was -0.00227.

Take RRIRFRPPRLPRPRPRPNHSPRP: the “shrunken log2 fold change” value is -0.832. Then RRIRHRPPRLPRPRPRPLHLPRP, with -0.0926; and RRIRKRPPRLPRPRPRPCEAPRP, with 0.277.

Consider RRIRHRPPRLPRPRPRPTWVPRP, for which the “shrunken log2 fold change” value was 0.078. Then RRIRMRPPRLPRPRPRPNFWPRP, with 0.294. For the sequence RRIRVRPPRLPRPRPRPYKFPRP, the “shrunken log2 fold change” value was -0.475.

With RRIRCRPPRLPRPRPRPRDWPRP, the “shrunken log2 fold change” value was determined as 0.591. The figure for RRIRIRPPRLPRPRPRPRMMPRP is -0.293. In the case of RRIRFRPPRLPRPRPRPWDKPRP, the “shrunken log2 fold change” value is -1.33. The figure for RRIRTRPPRLPRPRPRPNFQPRP is 0.00569; for RRIRQRPPRLPRPRPRPSEGPRP it is 0.0871; for RRIRCRPPRLPRPRPRPSLSPRP it is -0.429.

In the case of RRIRKRPPRLPRPRPRPVCEPRP, the “shrunken log2 fold change” value came to 0.552. Then RRIRKRPPRLPRPRPRPDPKPRP, with 0.549; and RRIRYRPPRLPRPRPRPYKAPRP, with 0.019; and RRIRTRPPRLPRPRPRPLLNPRP, with -0.157. The figure for RRIRRRPPRLPRPRPRPCEYPRP is 0.0177. As to RRIRARPPRLPRPRPRPFPNPRP, the “shrunken log2 fold change” value is -0.221.

Consider RRIRARPPRLPRPRPRPWFFPRP, for which the “shrunken log2 fold change” value was found to be 0.089.

Regarding RRIRGRPPRLPRPRPRPDDNPRP, the “shrunken log2 fold change” value turned out to be 0.484. Regarding RRIRTRPPRLPRPRPRPDDVPRP, the “shrunken log2 fold change” value was -0.102. The figure for RRIRGRPPRLPRPRPRPERLPRP is 0.586; for RRIRTRPPRLPRPRPRPMKCPRP it is -0.0722; for RRIRMRPPRLPRPRPRPCGNPRP it is 0.137. For the sequence RRIRLRPPRLPRPRPRPWQIPRP, the “shrunken log2 fold change” value turned out to be 0.019. Consider RRIRNRPPRLPRPRPRPRRNPRP, for which the “shrunken log2 fold change” value was -0.03. The figure for RRIRWRPPRLPRPRPRPPFVPRP is 0.171.

For the sequence RRIRWRPPRLPRPRPRPSRAPRP, the “shrunken log2 fold change” value worked out at 0.397. For RRIRWRPPRLPRPRPRPYMVPRP, the “shrunken log2 fold change” value was -0.844. Then RRIRRRPPRLPRPRPRPHKWPRP, with 2.57; and RRIRDRPPRLPRPRPRPDFKPRP, with 0.00362; and RRIRARPPRLPRPRPRPAISPRP, with 0.594. Then RRIRHRPPRLPRPRPRPIEEPRP, with -0.127. Consider RRIRERPPRLPRPRPRPPWWPRP, for which the “shrunken log2 fold change” value turned out to be 0.537.

As to RRIRCRPPRLPRPRPRPEYFPRP, the “shrunken log2 fold change” value was -0.0582. Turning to RRIRCRPPRLPRPRPRPYVGPRP, the “shrunken log2 fold change” value is -0.163. Consider RRIRTRPPRLPRPRPRPGIAPRP, for which the “shrunken log2 fold change” value is -0.0278. The figure for RRIRHRPPRLPRPRPRPDKNPRP is -0.496; for RRIRSRPPRLPRPRPRPRYAPRP it is -0.0842. Take RRIRTRPPRLPRPRPRPNGIPRP: the “shrunken log2 fold change” value came to 0.0301.

Consider RRIRDRPPRLPRPRPRPACEPRP, for which the “shrunken log2 fold change” value came out at 0.58. The figure for RRIRVRPPRLPRPRPRPICMPRP is -0.0265; for RRIRQRPPRLPRPRPRPKDIPRP it is 0.0266; for RRIRKRPPRLPRPRPRPNLCPRP it is 0.118. Turning to RRIRSRPPRLPRPRPRPGFWPRP, the “shrunken log2 fold change” value came out at 0.654. Take RRIRGRPPRLPRPRPRPYRDPRP: the “shrunken log2 fold change” value was 0.528. The figure for RRIRKRPPRLPRPRPRPLEDPRP is -0.0129; for RRIRLRPPRLPRPRPRPTCWPRP it is 0.393; for RRIRGRPPRLPRPRPRPFITPRP it is 0.0604. As to RRIRHRPPRLPRPRPRPSVYPRP, the “shrunken log2 fold change” value was -0.47. The figure for RRIRVRPPRLPRPRPRPVWSPRP is 0.754; for RRIRERPPRLPRPRPRPKAGPRP it is 0.174. The figure for RRIRRRPPRLPRPRPRPWWHPRP is 0.0484. Then RRIRCRPPRLPRPRPRPSWQPRP, with -0.0872. Regarding RRIRWRPPRLPRPRPRPEIKPRP, the “shrunken log2 fold change” value was -0.0674.

For the sequence RRIRKRPPRLPRPRPRPCWCPRP, the “shrunken log2 fold change” value was -0.0214. Then RRIRYRPPRLPRPRPRPRMFPRP, with -0.306; and RRIRHRPPRLPRPRPRPTIHPRP, with -0.552.

With RRIRARPPRLPRPRPRPKEAPRP, the “shrunken log2 fold change” value was 0.516. Then RRIRRRPPRLPRPRPRPRPPPRP, with 0.931; and RRIRKRPPRLPRPRPRPQEKPRP, with -0.0233; and RRIRHRPPRLPRPRPRPCALPRP, with -0.339. For RRIRWRPPRLPRPRPRPFNMPRP, the “shrunken log2 fold change” value was -0.298. Consider RRIRYRPPRLPRPRPRPRMLPRP, for which the “shrunken log2 fold change” value is -1.08. With RRIRCRPPRLPRPRPRPDFYPRP, the “shrunken log2 fold change” value is -0.629.

RRIRKRPPRLPRPRPRPKQRPRP: the “shrunken log2 fold change” value stood at 0.393. Then RRIRERPPRLPRPRPRPPKPPRP, with 0.122.

Regarding RRIRNRPPRLPRPRPRPFEIPRP, the “shrunken log2 fold change” value was -0.0195.

Consider RRIRQRPPRLPRPRPRPTDKPRP, for which the “shrunken log2 fold change” value is -0.112.

As for RRIRNRPPRLPRPRPRPVSVPRP, the “shrunken log2 fold change” value is -0.143.

Take RRIRHRPPRLPRPRPRPQPMPRP: the “shrunken log2 fold change” value was -0.109. As to RRIRRRPPRLPRPRPRPNVCPRP, the “shrunken log2 fold change” value is 0.0167. For the sequence RRIRLRPPRLPRPRPRPPRAPRP, the “shrunken log2 fold change” value is 0.875. The figure for RRIRMRPPRLPRPRPRPCMMPRP is -0.124. Take RRIRRRPPRLPRPRPRPQCVPRP: the “shrunken log2 fold change” value came out at 0.0427. For the sequence RRIRPRPPRLPRPRPRPNPLPRP, the “shrunken log2 fold change” value stood at 0.149.

With RRIRPRPPRLPRPRPRPYELPRP, the “shrunken log2 fold change” value was -0.0423. Then RRIRARPPRLPRPRPRPGPHPRP, with 0.568. With RRIRNRPPRLPRPRPRPGAPPRP, the “shrunken log2 fold change” value was 0.492. Consider RRIRARPPRLPRPRPRPLDEPRP, for which the “shrunken log2 fold change” value came to 1.53. As for RRIRIRPPRLPRPRPRPYRIPRP, the “shrunken log2 fold change” value is -0.485.

As to RRIRGRPPRLPRPRPRPKRKPRP, the “shrunken log2 fold change” value came to 0.835.

For RRIRMRPPRLPRPRPRPHVPPRP, the “shrunken log2 fold change” value is 0.107. For the sequence RRIRLRPPRLPRPRPRPQFDPRP, the “shrunken log2 fold change” value is -0.293.

Turning to RRIRERPPRLPRPRPRPVDGPRP, the “shrunken log2 fold change” value worked out at 0.222. Turning to RRIRFRPPRLPRPRPRPMNIPRP, the “shrunken log2 fold change” value was -0.192. The figure for RRIRKRPPRLPRPRPRPIHHPRP is 0.0077; for RRIRKRPPRLPRPRPRPTNLPRP it is -0.0903; for RRIRVRPPRLPRPRPRPILLPRP it is -0.815. For RRIRMRPPRLPRPRPRPFLLPRP, the “shrunken log2 fold change” value is -0.227.
